In patent publication US20240261333A1, “NOVEL TARGETS FOR ENHANCING ANTI-TUMOR IMMUNITY” (THE BROAD INSTITUTE, INC., priority 2021, published 2024):

Tests used:
DNAJA1 (human) = DNAJA1 (human) (UniProt P31689); assay: co-IP/MS, IgG control IP of N-FLAG B3GNT2 cell lysate
ATP1A1 (human) = ATP1A1 (human) (UniProt P05023); assay: as above
CAPZA1 (human) = CAPZA1 (human) (UniProt P52907); assay: as above
UQCRC2 (human) = UQCRC2 (human) (UniProt P22695); assay: as above
FAM3C (human) = FAM3C (human) (UniProt Q92520); assay: as above
RPL14 (human) = RPL14 (human) (UniProt P50914); assay: as above
CAPZB (human) = CAPZB (human) (UniProt P47756); assay: as above
IPO4 (human) = IPO4 (human) (UniProt Q8TEX9); assay: as above
PCBP1 (human) = PCBP1 (human) (UniProt Q15365); assay: as above
PIP (human) = PIP (human) (UniProt P12273); assay: as above
RPL23A (human) = RPL23A (human) (UniProt P62750); assay: as above
RPL30 (human) = RPL30 (human) (UniProt P62888); assay: as above
RPS5 (human) = RPS5 (human) (UniProt P46782); assay: as above
ERLIN1 (human) = ERLIN1 (human) (UniProt O75477); assay: as above
PRDX1 (human) = PRDX1 (human) (UniProt Q06830); assay: as above
TUBB (human) = TUBB (human) (UniProt P07437); assay: as above
CANX (human) = CANX (human) (UniProt P27824); assay: as above
RPS12 (human) = RPS12 (human) (UniProt P25398); assay: as above
RPS15 (human) = RPS15 (human) (UniProt P62841); assay: as above
GCN1 (human) = GCN1 (human) (UniProt Q92616); assay: as above
CKAP4 (human) = CKAP4 (human) (UniProt Q07065); assay: as above
SQSTM1 (human) = SQSTM1 (human) (UniProt Q13501); assay: as above
RPL24 (human) = RPL24 (human) (UniProt P83731); assay: as above
CALU (human) = CALU (human) (UniProt O43852); assay: as above
PDIA6 (human) = PDIA6 (human) (UniProt Q15084); assay: as above
ITGB3 = ITGB3 (UniProt P05106); assay: co-IP, anti-FLAG, N-FLAG B3GNT2 cell lysate, mass spectrometry
TAGLN = TAGLN (UniProt Q01995); assay: as above
POF1B = POF1B (UniProt Q8WVV4); assay: as above
RPL35 = RPL35 (UniProt P42766); assay: as above
EMD = EMD (UniProt P50402); assay: as above
MTCH2 = MTCH2 (UniProt Q9Y6C9); assay: as above
RPL19 = RPL19 (UniProt P84098); assay: as above
RPL3 = RPL3 (UniProt P39023); assay: as above
PSMA7 = PSMA7 (UniProt O14818); assay: as above
HIST1H1E = HIST1H1E (UniProt P10412); assay: as above
TMEM59 = TMEM59 (UniProt Q9BXS4); assay: as above
PBXIP1 = PBXIP1 (UniProt Q96AQ6); assay: as above
DNAJA2 = DNAJA2 (UniProt O60884); assay: as above
CASC3 (human) = CASC3 (human) (UniProt O15234); assay: co-IP with mouse anti-FLAG from lysate of cells overexpressing N-FLAG B3GNT2, then mass spectrometry

Chain of UQCRC2 (human) (P22695 15-453 limits assumed): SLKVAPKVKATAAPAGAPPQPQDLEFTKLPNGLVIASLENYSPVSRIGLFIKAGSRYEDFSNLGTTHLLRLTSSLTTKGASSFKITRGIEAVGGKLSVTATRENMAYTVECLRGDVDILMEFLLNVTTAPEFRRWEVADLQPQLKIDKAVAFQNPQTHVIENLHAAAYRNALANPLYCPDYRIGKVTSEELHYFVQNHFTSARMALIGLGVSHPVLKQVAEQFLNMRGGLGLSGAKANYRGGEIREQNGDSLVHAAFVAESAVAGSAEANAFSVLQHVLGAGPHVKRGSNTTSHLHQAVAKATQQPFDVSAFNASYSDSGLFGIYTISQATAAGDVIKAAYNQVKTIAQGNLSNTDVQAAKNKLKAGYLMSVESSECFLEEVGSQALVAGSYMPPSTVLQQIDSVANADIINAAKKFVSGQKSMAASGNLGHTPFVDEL
Chain of CANX (human) (P27824 21-592 limits assumed): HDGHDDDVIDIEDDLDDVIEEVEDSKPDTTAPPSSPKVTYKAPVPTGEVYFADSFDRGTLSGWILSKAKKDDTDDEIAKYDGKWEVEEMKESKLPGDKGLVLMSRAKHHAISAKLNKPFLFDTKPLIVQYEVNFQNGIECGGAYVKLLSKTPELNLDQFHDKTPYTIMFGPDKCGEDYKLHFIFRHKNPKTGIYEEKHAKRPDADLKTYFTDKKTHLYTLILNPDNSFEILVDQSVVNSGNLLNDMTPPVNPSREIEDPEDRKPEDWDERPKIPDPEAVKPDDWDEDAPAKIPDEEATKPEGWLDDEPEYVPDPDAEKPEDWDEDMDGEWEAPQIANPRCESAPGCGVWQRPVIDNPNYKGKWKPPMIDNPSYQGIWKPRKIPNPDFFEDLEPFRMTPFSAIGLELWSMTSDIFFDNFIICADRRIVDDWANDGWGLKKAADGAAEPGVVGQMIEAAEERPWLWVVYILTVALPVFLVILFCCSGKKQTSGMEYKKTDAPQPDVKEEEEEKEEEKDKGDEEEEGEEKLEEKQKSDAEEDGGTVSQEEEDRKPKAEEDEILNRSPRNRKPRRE
Chain of CKAP4 (human) (Q07065 whole entry): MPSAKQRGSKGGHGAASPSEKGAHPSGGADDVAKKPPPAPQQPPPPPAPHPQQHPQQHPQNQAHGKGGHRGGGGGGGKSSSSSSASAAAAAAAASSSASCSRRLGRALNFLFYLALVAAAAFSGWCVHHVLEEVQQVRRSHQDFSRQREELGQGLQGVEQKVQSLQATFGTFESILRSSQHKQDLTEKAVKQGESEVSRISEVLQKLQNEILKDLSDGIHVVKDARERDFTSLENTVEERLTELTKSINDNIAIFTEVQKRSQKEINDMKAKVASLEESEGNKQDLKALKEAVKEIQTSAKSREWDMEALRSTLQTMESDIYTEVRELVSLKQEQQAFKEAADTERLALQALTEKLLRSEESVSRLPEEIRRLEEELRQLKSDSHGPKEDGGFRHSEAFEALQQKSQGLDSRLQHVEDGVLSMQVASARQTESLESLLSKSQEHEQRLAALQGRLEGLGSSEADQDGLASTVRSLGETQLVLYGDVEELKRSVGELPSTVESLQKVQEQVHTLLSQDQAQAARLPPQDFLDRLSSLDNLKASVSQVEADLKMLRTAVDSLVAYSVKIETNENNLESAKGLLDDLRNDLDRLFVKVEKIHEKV
Chain of TAGLN (Q01995 2-201 limits assumed): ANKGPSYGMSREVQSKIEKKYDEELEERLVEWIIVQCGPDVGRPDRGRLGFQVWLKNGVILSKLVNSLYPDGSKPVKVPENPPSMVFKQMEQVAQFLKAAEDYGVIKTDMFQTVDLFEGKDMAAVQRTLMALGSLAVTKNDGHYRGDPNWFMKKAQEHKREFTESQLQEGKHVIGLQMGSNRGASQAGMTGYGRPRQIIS
Chain of PCBP1 (human) (Q15365 whole entry): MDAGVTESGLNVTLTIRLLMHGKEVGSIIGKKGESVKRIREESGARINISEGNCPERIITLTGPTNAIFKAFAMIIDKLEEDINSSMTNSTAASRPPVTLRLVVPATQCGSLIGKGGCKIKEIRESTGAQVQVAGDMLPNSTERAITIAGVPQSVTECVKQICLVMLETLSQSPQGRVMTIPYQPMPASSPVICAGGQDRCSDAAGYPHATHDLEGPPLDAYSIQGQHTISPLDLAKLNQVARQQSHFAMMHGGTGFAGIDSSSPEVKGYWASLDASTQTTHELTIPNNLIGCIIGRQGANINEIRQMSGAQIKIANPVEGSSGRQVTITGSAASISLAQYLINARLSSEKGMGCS
Chain of DNAJA2 (O60884 1-409 limits assumed): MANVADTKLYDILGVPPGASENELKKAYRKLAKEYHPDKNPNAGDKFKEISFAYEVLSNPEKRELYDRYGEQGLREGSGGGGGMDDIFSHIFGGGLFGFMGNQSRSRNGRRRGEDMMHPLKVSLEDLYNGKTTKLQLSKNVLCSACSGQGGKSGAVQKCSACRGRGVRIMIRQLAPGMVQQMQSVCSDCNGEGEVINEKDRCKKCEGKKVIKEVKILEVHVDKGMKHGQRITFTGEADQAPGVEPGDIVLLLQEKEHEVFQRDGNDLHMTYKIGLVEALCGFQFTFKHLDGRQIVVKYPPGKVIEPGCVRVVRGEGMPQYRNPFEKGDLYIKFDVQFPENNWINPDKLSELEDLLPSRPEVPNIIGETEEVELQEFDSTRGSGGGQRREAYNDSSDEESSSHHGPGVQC
Chain of POF1B (Q8WVV4 other isoform, or with tags, fused parts or gaps limits assumed): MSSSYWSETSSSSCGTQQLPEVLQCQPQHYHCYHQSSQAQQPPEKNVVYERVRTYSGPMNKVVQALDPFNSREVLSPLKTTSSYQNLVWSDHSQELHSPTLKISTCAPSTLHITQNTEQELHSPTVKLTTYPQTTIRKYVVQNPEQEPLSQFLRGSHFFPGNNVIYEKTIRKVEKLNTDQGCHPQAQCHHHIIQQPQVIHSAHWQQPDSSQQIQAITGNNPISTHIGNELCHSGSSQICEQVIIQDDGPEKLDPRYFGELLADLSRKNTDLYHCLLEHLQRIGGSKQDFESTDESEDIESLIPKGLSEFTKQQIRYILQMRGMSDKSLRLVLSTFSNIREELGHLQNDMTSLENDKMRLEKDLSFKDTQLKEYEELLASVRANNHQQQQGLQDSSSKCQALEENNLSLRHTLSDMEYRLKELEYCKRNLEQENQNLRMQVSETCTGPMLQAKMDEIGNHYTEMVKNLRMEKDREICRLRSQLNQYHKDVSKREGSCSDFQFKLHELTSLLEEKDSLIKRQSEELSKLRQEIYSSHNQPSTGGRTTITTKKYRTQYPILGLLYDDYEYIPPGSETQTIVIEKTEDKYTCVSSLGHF
Chain of TMEM59 (Q9BXS4 36-323 limits assumed): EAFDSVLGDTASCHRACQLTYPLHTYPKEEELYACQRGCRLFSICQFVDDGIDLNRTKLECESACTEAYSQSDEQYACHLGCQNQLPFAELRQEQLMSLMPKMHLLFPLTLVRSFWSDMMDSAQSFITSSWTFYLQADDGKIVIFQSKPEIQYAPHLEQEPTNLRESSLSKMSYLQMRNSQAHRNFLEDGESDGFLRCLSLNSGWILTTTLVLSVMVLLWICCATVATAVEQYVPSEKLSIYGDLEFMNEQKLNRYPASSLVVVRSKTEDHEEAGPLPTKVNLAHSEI
Chain of TUBB (human) (P07437 whole entry): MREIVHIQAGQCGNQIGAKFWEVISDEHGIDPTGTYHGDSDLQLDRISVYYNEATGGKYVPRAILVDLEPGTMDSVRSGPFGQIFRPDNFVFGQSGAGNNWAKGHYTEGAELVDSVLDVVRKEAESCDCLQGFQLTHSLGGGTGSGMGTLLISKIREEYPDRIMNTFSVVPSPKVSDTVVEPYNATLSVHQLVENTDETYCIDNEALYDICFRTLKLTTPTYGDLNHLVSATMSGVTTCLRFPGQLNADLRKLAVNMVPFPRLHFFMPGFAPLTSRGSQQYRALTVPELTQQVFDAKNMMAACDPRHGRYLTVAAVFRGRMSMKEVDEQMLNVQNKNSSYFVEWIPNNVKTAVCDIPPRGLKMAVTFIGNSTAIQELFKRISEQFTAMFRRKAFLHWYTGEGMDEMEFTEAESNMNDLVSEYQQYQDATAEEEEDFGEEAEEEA
Chain of ITGB3 (P05106 27-788 limits assumed): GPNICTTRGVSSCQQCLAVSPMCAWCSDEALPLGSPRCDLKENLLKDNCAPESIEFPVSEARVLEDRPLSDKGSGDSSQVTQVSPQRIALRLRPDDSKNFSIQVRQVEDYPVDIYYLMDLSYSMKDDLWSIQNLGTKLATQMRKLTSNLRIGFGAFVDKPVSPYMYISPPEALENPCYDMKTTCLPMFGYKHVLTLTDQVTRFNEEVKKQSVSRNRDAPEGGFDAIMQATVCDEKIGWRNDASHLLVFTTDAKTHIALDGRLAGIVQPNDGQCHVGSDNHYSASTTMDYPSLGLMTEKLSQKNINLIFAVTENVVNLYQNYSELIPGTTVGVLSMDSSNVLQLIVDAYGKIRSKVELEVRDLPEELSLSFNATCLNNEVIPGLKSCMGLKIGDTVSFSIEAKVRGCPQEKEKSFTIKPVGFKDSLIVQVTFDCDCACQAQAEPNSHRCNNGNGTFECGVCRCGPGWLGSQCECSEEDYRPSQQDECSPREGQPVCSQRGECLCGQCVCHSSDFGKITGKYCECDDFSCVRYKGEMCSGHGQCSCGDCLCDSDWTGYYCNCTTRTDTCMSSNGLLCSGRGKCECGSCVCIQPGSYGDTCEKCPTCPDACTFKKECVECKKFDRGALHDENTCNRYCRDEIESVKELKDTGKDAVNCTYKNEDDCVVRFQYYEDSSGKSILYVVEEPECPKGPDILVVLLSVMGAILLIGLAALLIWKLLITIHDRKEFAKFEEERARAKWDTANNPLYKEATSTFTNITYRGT
Chain of PRDX1 (human) (Q06830 2-199 limits assumed): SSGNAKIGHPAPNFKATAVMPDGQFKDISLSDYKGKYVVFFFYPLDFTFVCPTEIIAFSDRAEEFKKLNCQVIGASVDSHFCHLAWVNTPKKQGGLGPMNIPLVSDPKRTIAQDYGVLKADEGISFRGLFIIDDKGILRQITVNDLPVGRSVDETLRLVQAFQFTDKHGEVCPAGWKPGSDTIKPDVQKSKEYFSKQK

With “IgG control (Millipore Sigma 12-371) (antibody)” the co-IP mass spectrometry count (DNAJA1 (human)) was 0, the co-IP mass spectrometry count (ATP1A1 (human)) was 0 and the co-IP mass spectrometry count (CAPZA1 (human)) was 0. For the same substance, the co-IP mass spectrometry count (UQCRC2 (human)) was 0, the co-IP mass spectrometry count (FAM3C (human)) was 0 and the co-IP mass spectrometry count (RPL14 (human)) was 7. It also gave a co-IP mass spectrometry count (CAPZB (human)) of 2, a co-IP mass spectrometry count (IPO4 (human)) of 0 and a co-IP mass spectrometry count (PCBP1 (human)) of 0. For the same substance, the co-IP mass spectrometry count (PIP (human)) was 0, the co-IP mass spectrometry count (RPL23A (human)) was 3 and the co-IP mass spectrometry count (RPL30 (human)) was 6. The co-IP mass spectrometry count (RPS5 (human)) was 3, the co-IP mass spectrometry count (ERLIN1 (human)) was 0 and the co-IP mass spectrometry count (PRDX1 (human)) was 5. It also gave a co-IP mass spectrometry count (TUBB (human)) of 10, a co-IP mass spectrometry count (CANX (human)) of 0 and a co-IP mass spectrometry count (RPS12 (human)) of 0. It also gave a co-IP mass spectrometry count (RPS15 (human)) of 5, a co-IP mass spectrometry count (GCN1 (human)) of 0 and a co-IP mass spectrometry count (CKAP4 (human)) of 0. It also gave a co-IP mass spectrometry count (SQSTM1 (human)) of 0, a co-IP mass spectrometry count (RPL24 (human)) of 4 and a co-IP mass spectrometry count (CALU (human)) of 0. For the same substance, the co-IP mass spectrometry count (PDIA6 (human)) was 0.

“N-terminal FLAG tagged B3GNT2 (from UniProt Q9NY97 1-397) (enzyme)” gave a co-IP mass spectrometry count (ITGB3) of 3, a co-IP mass spectrometry count (TAGLN) of 2 and a co-IP mass spectrometry count (POF1B) of 5. For the same substance, the co-IP mass spectrometry count (RPL35) was 7, the co-IP mass spectrometry count (EMD) was 2 and the co-IP mass spectrometry count (MTCH2) was 4. For the same substance, the co-IP mass spectrometry count (RPL19) was 8, the co-IP mass spectrometry count (RPL3) was 8 and the co-IP mass spectrometry count (PSMA7) was 4. For the same substance, the co-IP mass spectrometry count (HIST1H1E) was 6, the co-IP mass spectrometry count (TMEM59) was 6 and the co-IP mass spectrometry count (PBXIP1) was 2. The co-IP mass spectrometry count (DNAJA2) was 3 and the co-IP mass spectrometry count (N-term FLAG) (CASC3 (human)) was 3.
